From patent US20250115677A1, “Anti-CEA Antibody Drug Conjugates and Methods of Use” (BeiGene Switzerland GmbH, priority 2022, published 2025)

Columns and labels:
CEA variant (CEA-v) = molecular target: T1, CEA variant (CEA-v) (human, UniProt P06731 35-687); assay: SPR (BIAcore T-200); antibody captured by anti-murine IgG, antigen flowed
T1 construct: Splice-variant construct made by overlap PCR of CEA AA 1-78 and AA 398-687, C-terminal 6xHis; also called sCEA-v
T1 sequence: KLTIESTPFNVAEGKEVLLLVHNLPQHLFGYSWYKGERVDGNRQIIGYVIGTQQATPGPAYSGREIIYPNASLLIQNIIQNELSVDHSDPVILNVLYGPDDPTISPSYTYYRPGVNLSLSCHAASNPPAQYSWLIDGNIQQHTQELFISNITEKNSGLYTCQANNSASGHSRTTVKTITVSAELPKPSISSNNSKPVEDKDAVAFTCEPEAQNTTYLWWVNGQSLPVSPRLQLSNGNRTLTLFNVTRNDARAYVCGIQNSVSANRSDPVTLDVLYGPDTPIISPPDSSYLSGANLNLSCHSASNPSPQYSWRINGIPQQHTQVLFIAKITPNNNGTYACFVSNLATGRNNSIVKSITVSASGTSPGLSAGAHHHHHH
Protocol: (§1) Briefly, anti-murine IgG antibody was immobilized on an activated CM5 biosensor chip (Cat. No. BR100530, GE Life Sciences). Purified murine antibodies were flowed over the chip surface and captured by anti-murine IgG antibody. […] The equilibrium dissociation constant (KD) was calculated as the ratio koff/kₒₙ.

[1] = molecular target: T2, chimeric construct (CHIM) (human); assay: as above
T2 construct: CEACAM6 AA 1-273 joined to the membrane-peripheral region containing domain B3 of CEA (AA 596-687), C-terminal 6xHis; also called chimeric CEA
T2 chain: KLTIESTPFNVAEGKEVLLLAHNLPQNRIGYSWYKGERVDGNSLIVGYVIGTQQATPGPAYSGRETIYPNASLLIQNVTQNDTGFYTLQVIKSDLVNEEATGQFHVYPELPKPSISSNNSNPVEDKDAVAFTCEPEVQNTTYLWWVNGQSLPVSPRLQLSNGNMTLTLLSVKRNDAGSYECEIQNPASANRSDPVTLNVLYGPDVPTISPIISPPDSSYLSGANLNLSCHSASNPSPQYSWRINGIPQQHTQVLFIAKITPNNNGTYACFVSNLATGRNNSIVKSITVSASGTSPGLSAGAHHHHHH
Protocol: as §1

[2] = molecular target: T3, human CEA on cells (MKN45, LOVO, NCI-H2122, LS174T, CT26/CEA) (human, UniProt P06731 35-685); assay: cell-based or functional assay
T3 sequence: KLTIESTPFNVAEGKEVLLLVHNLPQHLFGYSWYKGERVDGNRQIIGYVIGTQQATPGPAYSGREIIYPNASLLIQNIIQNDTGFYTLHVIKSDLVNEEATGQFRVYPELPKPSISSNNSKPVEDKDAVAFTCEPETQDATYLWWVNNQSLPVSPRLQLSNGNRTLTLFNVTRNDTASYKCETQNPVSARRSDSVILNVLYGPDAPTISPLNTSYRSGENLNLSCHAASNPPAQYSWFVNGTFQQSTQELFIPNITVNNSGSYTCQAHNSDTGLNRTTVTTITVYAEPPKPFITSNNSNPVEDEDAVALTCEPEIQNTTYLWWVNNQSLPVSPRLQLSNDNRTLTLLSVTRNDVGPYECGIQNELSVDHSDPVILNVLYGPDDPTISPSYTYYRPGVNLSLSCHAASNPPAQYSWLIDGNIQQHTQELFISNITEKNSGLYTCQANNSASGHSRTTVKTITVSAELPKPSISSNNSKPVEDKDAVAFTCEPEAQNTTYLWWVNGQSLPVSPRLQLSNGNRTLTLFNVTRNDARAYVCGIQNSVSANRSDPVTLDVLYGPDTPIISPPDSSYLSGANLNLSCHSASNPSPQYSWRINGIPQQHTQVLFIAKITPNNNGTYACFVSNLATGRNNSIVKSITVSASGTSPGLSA

[3] = molecular target: T2, chimeric construct (CHIM); assay: SPR; binding to CHIM
[4] = molecular target: T3, human CEA on cells (MKN45, LOVO, …); assay: flow cytometry on MKN45 cells
[5] = molecular target: T4, recombinant soluble human CEA (extracellular domain, AA 1-687 of huCEA, C-terminal 6xHis) (human, UniProt P06731 35-687); assay: SPR; kinetics on huCEA, IgG format
T4 construct: also called sCEA; soluble CEA
T4 sequence: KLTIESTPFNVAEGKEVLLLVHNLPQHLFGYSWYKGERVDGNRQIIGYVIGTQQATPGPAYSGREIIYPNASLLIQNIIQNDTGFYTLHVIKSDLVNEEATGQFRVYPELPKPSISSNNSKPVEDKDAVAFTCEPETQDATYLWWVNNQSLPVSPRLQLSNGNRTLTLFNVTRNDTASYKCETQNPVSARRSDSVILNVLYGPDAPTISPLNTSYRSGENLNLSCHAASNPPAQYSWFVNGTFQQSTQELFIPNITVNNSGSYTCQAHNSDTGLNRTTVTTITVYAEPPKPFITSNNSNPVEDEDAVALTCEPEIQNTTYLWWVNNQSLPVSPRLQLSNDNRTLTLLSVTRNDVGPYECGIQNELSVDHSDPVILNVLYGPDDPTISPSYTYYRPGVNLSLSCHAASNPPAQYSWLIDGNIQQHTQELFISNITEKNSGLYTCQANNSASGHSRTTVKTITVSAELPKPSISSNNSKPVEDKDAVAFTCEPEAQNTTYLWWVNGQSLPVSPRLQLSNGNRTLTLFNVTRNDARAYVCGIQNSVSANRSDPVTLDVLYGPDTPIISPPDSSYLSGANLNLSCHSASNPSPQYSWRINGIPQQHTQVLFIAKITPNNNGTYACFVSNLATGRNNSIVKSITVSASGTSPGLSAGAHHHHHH

[6] = molecular target: T3, human CEA on cells (MKN45, LOVO, …); assay: flow cytometry on MKN45 cells, Alexa Fluor 647 anti-human IgG Fc
Protocol: For flow cytometry, CEA-expressing MKN45 cells (10^5 cells/well) were incubated with various concentrations of purified affinity-matured antibodies, followed by binding with Alexa Fluor-647-labeled anti-hu IgG Fc antibody (Cat. No. 409320, BioLegend, USA). Cell fluorescence was quantified using a flow cytometer (Guava easyCyte™ 8HT, Merck-Millipore, USA).

CEA [7] = molecular target: T5, CEA (Homo sapiens, UniProt P06731); assay: Binding of humanized and PTM-engineered BGA7592 variants compared to BGA7592-1
T5 sequence (P06731 35-676): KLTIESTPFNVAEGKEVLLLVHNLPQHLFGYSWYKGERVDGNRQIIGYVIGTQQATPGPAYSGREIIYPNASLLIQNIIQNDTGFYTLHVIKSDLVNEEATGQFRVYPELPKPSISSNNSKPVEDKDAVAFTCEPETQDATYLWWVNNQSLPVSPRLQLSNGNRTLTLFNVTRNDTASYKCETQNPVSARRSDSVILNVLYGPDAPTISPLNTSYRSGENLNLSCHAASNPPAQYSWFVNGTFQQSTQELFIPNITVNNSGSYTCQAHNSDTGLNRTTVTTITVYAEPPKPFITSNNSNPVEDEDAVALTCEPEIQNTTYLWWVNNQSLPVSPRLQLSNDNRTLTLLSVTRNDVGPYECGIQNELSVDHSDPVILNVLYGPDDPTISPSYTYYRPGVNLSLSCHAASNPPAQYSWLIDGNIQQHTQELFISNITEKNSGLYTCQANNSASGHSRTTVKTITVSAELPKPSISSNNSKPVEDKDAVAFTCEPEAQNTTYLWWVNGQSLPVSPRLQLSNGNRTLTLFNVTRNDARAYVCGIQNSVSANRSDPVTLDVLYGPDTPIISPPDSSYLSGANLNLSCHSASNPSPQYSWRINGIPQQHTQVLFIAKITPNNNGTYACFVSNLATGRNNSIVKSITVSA
From the text: Using BGA7592-1, an additional number of single or multiple amino acid changes were made, converting the human residues in framework regions of VH and VL to corresponding murine germline residues, which include V68A, R72A and V79A in VH and V43S in VL, respectively. This resulted BGA7592-2 (V68A, R72A in VH), BGA7592-3 (V79A in VH), BGA7592-4 (V68A, R72A, V79A in VH), BGA7592-5 (V43S in VL), BGA7592-6 (V68A, R72A in VH, and V43S in VL), BGA7592-7 (V79A in VH, V43S in VL) and BGA7592-8 (V68A, R72A, V79A, in VH and V43S in VL). All antibodies which contained modifications had similar binding activities to BGA7592-1, and none of the changes abolished binding.
In order to remove post-translational modification (PTM) sites, further engineering was made by introducing mutations in CDRs and framework regions based on the BGA75921 sequence, which include N52T, N54Q, N59S, N102G, N104Q and S61A amino acid changes in the VH region. […] While maintaining specificity, amino acid compositions and expression levels were also considered. All humanization mutations were made using primers containing mutations at specific positions and a site directed mutagenesis kit (Cat. FM 111-02, TransGen, Beijing, China). The desired mutations were verified by sequence analysis.

CEA [8] = molecular target: T6, CEA (Homo sapiens, UniProt P06731); assay: SPR affinity measurement of BGA6710 variants; type: binding; conditions: BGA6710 variants in IgG format
T6 construct: 6xHis (C)
T6 sequence (P06731 with tags, fused parts or gaps limits assumed): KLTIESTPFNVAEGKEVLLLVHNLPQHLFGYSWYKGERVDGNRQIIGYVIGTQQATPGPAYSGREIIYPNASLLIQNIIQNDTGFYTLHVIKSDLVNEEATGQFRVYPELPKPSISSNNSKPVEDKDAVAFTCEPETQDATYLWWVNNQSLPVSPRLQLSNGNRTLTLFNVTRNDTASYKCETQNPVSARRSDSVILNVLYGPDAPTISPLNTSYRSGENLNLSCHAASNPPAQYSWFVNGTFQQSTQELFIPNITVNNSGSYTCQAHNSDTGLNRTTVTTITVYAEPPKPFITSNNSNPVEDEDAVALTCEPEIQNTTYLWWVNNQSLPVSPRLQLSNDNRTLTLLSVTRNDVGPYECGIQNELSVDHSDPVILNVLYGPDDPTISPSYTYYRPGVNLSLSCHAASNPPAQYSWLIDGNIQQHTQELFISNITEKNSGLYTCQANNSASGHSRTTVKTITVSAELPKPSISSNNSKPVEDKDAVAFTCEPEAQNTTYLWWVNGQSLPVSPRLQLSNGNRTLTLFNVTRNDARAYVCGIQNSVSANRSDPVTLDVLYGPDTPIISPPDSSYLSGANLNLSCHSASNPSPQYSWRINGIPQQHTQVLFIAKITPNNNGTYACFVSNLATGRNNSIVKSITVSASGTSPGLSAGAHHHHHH
From the text: To further improve the biochemical/biophysical properties, optimization of BGA6710 was made by introducing substitutions in CDR and framework regions (Table 13). The large, hydrophobic residues were chosen and changed to polar residues, except for K13 and Q53, which are selected based on observed differences among human VH germlines. The considerations include amino acid compositions, heat stability (Tm), surface hydrophobicity and isoelectronic points (pIs) while maintaining functional activities. The variants were expressed in Fab format by cloning into the vector pCANTAB-5E as described in Example 6. The Fab-containing supernatants were then screened by ELISA and SPR analysis for CEA binding.
Thus, the BGA6710 variants in IgG format with single identified mutation or combinations were expressed and purified as described in Example 8.

B1: BGA7592 (antibody, V domains shown)
VH: QVQLQQSGAELAKSGASVKMSCKASGYIFTSYWLHWVKQRPGQGLEWIGYINPNTGYTNYSQKFKDKATLTADKSSSTAYMQLSSLTSEDSAVYYCAREYGNYNYPLDYWGQGTSVTVSS
VL: DIQMTQSPASLSASVGETVTITCRASENIYGYLAWYQQKQGKSPQLLVFNAKNLVEGVPSRFSGSGSGTQFSLKINSLQPEDFGSYYCQHHYGTPYTFGGGTKLEIK
notes: Murine monoclonal antibody purified from hybridoma supernatant; also called murine anti-CEA antibody BGA7592
Kd (CEA variant (CEA-v)): 150 nM | Kd [1]: 120 nM

B2: BGA6710 (antibody, human IgG1, V domains shown)
VH: QVQLVQSGAEVKKPGASVKVSCKASGYIFTSYYLHWVRQAPGQGLEWIGYINPQTGYTSYAQKFQGRVTMTRDTSTSTVYMELSSLRSEDTAVYYCAREYGNYNYPLDYWGQGTLVTVSS
VL: DIQMTQSPSSLSASVGDRVTITCRASENQYGYLAWYQQKPGKVPKLLIYNYKNLVEGVPSRFSGSGSGTDFTLTISSLQPEDVATYYCQHHLGTPYTFGQGTKVEIK
notes: BGA2433 with W33Y (VH) and T51Y (VL); wild-type human IgG1 format
ADCC (LDH release), NK92MI/CD16V effector cells with CT26 cells expressing CEA, EC50 [2]: ~0.0067 µg/mL | Kd [3]: 15.1 nM | koff [3]: 0.000475 s⁻¹ | kon [3]: 31500 M⁻¹ s⁻¹ | EC50 [4]: 0.49 µg/mL | Top [4]: 919 | Kd [5]: 1.49 nM | koff [5]: 0.000169 s⁻¹ | kon [5]: 113000 M⁻¹ s⁻¹ | EC50 (read off the curve) [6]: ~0.5 µg/mL

B3: BGA7592-1F: "BGA7592-1F (N54Q, N59S, S61 A (VH))"; humanized, "no glycosylation sites but had a high expression level" (antibody, V domains shown)
VH: QVQLVQSGAEVKKPGASVKVSCKASGYIFTSYWLHWVRQAPGQGLEWIGYINPQTGYTSYAQKFQGRVTMTRDTSTSTVYMELSSLRSEDTAVYYCAREYGNYNYPLDYWGQGTLVTVSS
VL: DIQMTQSPSSLSASVGDRVTITCRASENIYGYLAWYQQKPGKVPKLLIYNAKNLVEGVPSRFSGSGSGTDFTLTISSLQPEDVATYYCQHHYGTPYTFGQGTKVEIK
binding affinities compared to BGA7592-1 (CEA [7]): significantly reduced binding affinities

B4: L92E: BGA6710 variant in IgG format, L92E in the light chain, "slightly reduces the binding affinity to CEA" (antibody, V domains shown)
VH: QVQLVQSGAEVKKPGASVKVSCKASGYIFTSYYLHWVRQAPGQGLEWIGYINPQTGYTSYAQKFQGRVTMTRDTSTSTVYMELSSLRSEDTAVYYCAREYGNYNYPLDYWGQGTLVTVSS
VL: DIQMTQSPSSLSASVGDRVTITCRASENQYGYLAWYQQKPGKVPKLLIYNYKNLVEGVPSRFSGSGSGTDFTLTISSLQPEDVATYYCQHHEGTPYTFGQGTKVEIK
Kinetics (huCEA) ka (CEA [8]): 41700 M⁻¹ s⁻¹ | Kinetics (huCEA) kd (CEA [8]): 0.000188 s⁻¹
